# Data as given in patent publication US20240026407A1, “MODIFICATION OF SAPONINS” (GLAXOSMITHKLINE BIOLOGICALS SA, priority 2020, published 2024).
# What was measured:
# Format in all cases: biochemical, Quillaja saponaria
# [1] = Experiment 5-1: screening of additional glucosidases for deglycosylation with purified QS-18 (0.04 mg/ml) at pH 7.5 and 30 deg C; settings: pH 7.5, 30 degrees C, 18 hours, LCMS/MS
# Experimental: The 94 additional genes, together with positive control (DNA encoding SEQ ID No. 262) and negative control, were transformed, expressed, lysed and reacted in the same manner as described above for Experiment 4-1, except the reaction was incubated at 30 degrees C. for 18 hours.
# Samples were analysed by LCMS/MS according to the procedure in Experiment 4-1.
# [2] = Experiment 5-2: screening of additional glucosidases for deglycosylation with QS-18 in crude bark extract (80%) at pH 6 and 35 deg C; settings: CBE 80%, pH 6, 35 deg C, 18 hours; UV HPLC
# Summary of the method: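 Deglycosylation of QS-18 was monitored by UV HPLC after MeCN/AcOH quench with hexanophenone. The reaction ran 18 hours at 35 deg C, shaking, combining clarified pH 6 lysate with crude bark extract neutralised to pH 6 by NaOH.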
# [3] = Experiment 5-3: screening of additional glucosidases for deglycosylation with QS-18 in treated bark extract (80%) at pH 6 and 35 deg C; settings: TBE 80% (QS-21 approx. 4 g/L), pH 6, 35 deg C; UV HPLC
# Experimental: Experiment 5-1 was repeated, replacing CBE with Treated Bark Extract (TBE) at pH 6. TBE was prepared from CBE by PVPP treatment and concentration, to provide TBE with a QS-21 concentration of approximately 4 g/L. TBE was adjusted to pH 6 by dropwise addition of 2M NaOH with stirring.
Molecule,Experiment 5-1 % conv [1] [%],Experiment 5-2 % conv [2] [%],Experiment 5-3 % conv [3] [%]
"850 (protein, listed as Bifidobacterium scardovii) MSESTYPSVKDLTLEEKASLTSGGDVWHLQGVESKGIPGYMITDGPHGLRKSLASSAGETDLDASVPATCFPPAAGLSSSWNPELIRKVGEAMGEECIQEKVAVILGPGVNIKRNPLGGRCFEYWSEDPYLAGHEAIGIVEGVQSKGVGTSLKHFAANNQETDRLRISANIGPRALREIYLPAFEHIVKTAQPWTVMCSYNRINGVYSAQNRWLLTDVLRGEWGFEGIVMSDWGADHDRVASLNAGLNLEMPPSYTDDEIVHAARDGRIAPAQLDAMAQGMIDLVNRTRAAMSVDDYRFDVDAHDEVAHQAAVESIVMLKNDGAILPLDADAASGQKIAVIGEFARTPRYQGGGSSHITPTRMTSFLDALDERGIAAEFAPGFTLDLEPADPALEAQAVDAAKRADTVLMFLGLPEAAESEGFDRETLDIPAKQIALLDAVAAANDQVVVVLSNGSAVSVAPWAGRAKGILESWLLGQAGGPALADVIFGRTSPSGKLAQTIPMDINDDPSMVNWPGEEGHVDYGEGVFVGYRYYDTYGKAVGYPFGYGLSYATFEISKAAVARTGANAAVVTATVTNTSGVDGAETVQVYVAPGKADVARPRHELKGFVKVFLKAGESADVAIDLDERAFAYWSERYDDWHIESGEYAVEIGTSSRDIAATVTVALEGDGKTQPLTAWSTYGEWSSDPIGAKVMAAVAAAGEAGELPKLPDNAMMNMFLMAMPINSLPTLMSEGGKSITRFMLDEYARLTK",95.3,<0.5,<0.5
"879 (protein, listed as Morchella conica) MTVSPLPKDLQKKVNDVLDSLTLLEQVSLLAGKDFWRTVEIPGKVPSIKVTDGPSGARGQFFSGGTKAAFFPSGVSLAATFDPELITHIGNALGQETKTKAAQVLLAPTACNHRSPLGGRNFESFSEDPYLSGKLAASYISGVQAEGVAVTMKHFVANEQETKRFSVNEIIDERALREIYLKPFEIAVREAGPWGIMSSYNKVNAHHADLHPFSMKQVLRAEWGWDGLVMSDWGGTNSTAESLIAGLDLEMPGPTRRRGELLLKAVQDTNSSPELLAAIKTGARHVLELIARTGRWGKFQEAEEQAVDKLEHRELIRKTGAHGIVLLKNEGATLPIKREQIKSVAWIGPNANETIAGGGGSANLNPHYLTNPLESFTAAVEENDIKVAYEIGCQTEKWVRVFPVEEGRARTAPSATEGAPGLKVDFFGGRECSGECVASNVMTTSNIFLMDGKPPVLGDQDYSVRITTYIRPEATGEHVVGVGSIGPTKIYVDDKLLIDHTHWIELGELFFTSGSEEVTQKIHLEAGKWYKLVAETTSKSPEQKLPDMGNDNLDFASAIGIRLGIDAVRDVQEYIDRAATLAKKSDVAVVVVGMNNEWESEGYDRHTMALPGKQNELIEAVVKANPNTIVVNQSGCPVTMPWLDRVPAVLQAWYQGQEAGNALVDVLLGKVNPSGRLPITFPKRLEDNPSFGNFGDGGEKNQIAYTEGIYVGYRHYNSRDIPVLFPFGFGLSYTSFELGAPTVDQAAFEIGKKITVQVPVKNTGAIKGIETVQVYLAPKKSAVDRPKRELKGFAKIELEAGESGVARIELDHYAPGLFCEERKCWRALEGAYVVEVGRNVQEIDGSVEVAVEREYEWVF",90.1,<0.5,<0.5
